Data on 1 molecule can be found in PMC10545747, “Development of cyclopeptide inhibitors of cGAS targeting protein-DNA interaction and phase separation”.

Data set [1] has as its target hcGAS-FL (Homo sapiens, UniProt Q8N884 1-522). In words: fluorescence polarization; 300 nM protein, 40 nM DNA; XQ2 competes with IC50 19.2 ± 6.7 uM (inhibitor value, not DNA affinity); FP: 20 mM HEPES pH 7.5, 125 mM KCl, 10 mM MgCl2; 300 nM cGAS, 40 nM FAM-ISD; temperature not stated. MST conditions not given in the material. The note with it: protein: recombinant; tags: 6xHis-SUMO removed by ULP1; label: 5'-FAM on sense strand; blunt.

For data set [2], the target named is hcGAS-FL (D191R) (Homo sapiens, UniProt Q8N884 1-522, D191R). Kind of data set: fluorescence polarization; D191R did not interfere with dsDNA binding; XQ2 inhibition markedly reduced; FP: 20 mM HEPES pH 7.5, 125 mM KCl, 10 mM MgCl2; 300 nM cGAS, 40 nM FAM-ISD; temperature not stated. MST conditions not given in the material. Conditions: protein: recombinant; tags: 6xHis-SUMO removed by ULP1; label: 5'-FAM on sense strand; blunt. For orientation: Polarisation of emitted light reports the rotation of a fluorescent probe.
hcGAS-FL (D191R), sequence (Q8N884 whole entry D191R): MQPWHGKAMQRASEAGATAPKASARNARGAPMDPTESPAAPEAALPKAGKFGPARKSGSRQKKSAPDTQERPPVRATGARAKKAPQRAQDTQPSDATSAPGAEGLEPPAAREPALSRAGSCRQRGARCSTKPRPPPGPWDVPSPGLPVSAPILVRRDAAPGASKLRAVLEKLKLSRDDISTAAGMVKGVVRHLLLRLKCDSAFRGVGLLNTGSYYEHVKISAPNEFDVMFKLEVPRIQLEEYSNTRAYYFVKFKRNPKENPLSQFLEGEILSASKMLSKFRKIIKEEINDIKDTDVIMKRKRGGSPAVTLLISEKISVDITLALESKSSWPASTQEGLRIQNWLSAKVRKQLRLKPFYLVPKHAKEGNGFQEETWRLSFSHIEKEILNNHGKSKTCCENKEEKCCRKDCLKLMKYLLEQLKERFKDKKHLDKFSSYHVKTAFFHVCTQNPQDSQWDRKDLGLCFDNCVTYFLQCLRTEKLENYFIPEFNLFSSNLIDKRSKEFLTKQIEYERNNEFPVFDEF

hcGAS-FL, sequence (Q8N884 whole entry): as the sequence (Q8N884 whole entry D191R) above, with R191D counted along it

B1: 45-bp FAM-ISD (dsDNA)
DNA 1: TACAGATCTACTAGTGATCTATGACTGATCTGTACATGATCTACA
DNA 2: TGTAGATCATGTACAGATCAGTCATAGATCACTAGTAGATCTGTA
As to B1, the binding result in data set [1] and in data set [2] was “binds” throughout.
